Test [1] addresses T1, beta-catenin in DLD1 TCF/LEF luciferase reporter cells (UniProt P35222 1-781).
T1 sequence (looked up): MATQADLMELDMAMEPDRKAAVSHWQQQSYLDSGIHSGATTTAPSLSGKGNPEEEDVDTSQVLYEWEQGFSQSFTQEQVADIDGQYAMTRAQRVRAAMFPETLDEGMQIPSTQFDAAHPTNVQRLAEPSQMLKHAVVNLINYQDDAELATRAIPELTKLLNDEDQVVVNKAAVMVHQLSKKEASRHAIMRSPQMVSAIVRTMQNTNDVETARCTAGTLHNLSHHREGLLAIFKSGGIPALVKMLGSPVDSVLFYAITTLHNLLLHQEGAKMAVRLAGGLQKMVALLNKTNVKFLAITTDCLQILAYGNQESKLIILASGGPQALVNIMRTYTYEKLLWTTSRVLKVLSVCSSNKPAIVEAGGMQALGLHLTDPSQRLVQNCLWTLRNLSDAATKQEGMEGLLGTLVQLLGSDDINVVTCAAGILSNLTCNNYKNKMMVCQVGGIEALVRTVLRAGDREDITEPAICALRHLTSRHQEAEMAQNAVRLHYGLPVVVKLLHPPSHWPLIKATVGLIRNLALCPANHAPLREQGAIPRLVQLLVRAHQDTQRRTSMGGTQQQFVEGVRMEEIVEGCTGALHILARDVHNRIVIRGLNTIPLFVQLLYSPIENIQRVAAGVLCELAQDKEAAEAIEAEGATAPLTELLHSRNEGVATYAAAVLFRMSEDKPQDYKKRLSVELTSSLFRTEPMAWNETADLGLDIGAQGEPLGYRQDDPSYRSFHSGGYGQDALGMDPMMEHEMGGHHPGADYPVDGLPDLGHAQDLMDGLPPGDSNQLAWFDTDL
Kind of test: cell-based or functional assay.

Test [2] deals with T2, B-cat-Halo (beta-catenin HaloTag construct expressed in HEK293 cells) (UniProt P35222 1-781).
T2 sequence (looked up): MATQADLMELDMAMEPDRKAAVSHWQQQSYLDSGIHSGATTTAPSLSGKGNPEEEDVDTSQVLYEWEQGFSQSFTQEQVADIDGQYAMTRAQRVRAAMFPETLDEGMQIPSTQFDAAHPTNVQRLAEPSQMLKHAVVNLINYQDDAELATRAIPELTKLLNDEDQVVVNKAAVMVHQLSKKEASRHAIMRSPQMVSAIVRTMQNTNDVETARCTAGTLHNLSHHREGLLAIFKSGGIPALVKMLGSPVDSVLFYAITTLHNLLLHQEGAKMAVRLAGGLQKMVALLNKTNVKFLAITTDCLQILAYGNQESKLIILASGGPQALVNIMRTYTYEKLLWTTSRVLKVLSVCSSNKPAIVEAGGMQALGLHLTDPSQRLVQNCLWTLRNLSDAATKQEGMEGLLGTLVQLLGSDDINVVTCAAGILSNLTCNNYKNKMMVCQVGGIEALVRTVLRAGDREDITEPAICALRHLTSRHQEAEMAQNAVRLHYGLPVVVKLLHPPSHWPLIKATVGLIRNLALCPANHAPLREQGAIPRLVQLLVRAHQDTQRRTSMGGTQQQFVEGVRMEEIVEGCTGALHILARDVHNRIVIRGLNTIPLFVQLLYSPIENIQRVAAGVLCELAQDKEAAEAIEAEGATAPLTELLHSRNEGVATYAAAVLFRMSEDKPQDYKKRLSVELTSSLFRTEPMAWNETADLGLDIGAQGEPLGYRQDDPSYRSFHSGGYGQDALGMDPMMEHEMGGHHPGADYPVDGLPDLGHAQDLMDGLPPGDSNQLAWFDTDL
Kind of test: cell-based or functional assay.

For test [3], the target named is T3, B-cat-Halo (beta-catenin HaloTag Nano-BRET construct) (UniProt P35222 1-781).
T3 sequence (looked up): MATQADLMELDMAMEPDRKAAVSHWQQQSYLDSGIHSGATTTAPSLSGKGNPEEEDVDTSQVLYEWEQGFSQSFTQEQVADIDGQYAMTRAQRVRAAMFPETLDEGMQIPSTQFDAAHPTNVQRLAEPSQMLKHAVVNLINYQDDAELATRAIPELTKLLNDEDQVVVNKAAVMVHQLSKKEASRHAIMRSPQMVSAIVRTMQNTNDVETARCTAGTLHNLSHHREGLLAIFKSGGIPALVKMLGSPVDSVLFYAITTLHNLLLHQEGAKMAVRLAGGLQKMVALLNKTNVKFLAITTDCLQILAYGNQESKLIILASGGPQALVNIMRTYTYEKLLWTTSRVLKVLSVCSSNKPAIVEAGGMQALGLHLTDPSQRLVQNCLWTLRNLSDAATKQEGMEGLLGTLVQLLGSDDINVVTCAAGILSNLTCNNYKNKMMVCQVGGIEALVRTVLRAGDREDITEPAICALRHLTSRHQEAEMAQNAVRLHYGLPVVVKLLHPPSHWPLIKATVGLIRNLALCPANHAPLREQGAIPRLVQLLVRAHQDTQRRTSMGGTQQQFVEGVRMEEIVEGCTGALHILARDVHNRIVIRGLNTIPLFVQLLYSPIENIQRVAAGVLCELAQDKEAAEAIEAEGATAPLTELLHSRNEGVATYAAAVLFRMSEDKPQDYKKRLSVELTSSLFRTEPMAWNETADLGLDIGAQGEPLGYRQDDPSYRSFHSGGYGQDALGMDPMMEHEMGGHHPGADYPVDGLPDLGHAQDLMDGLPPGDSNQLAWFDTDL
Kind of test: cell-based or functional assay.

The target of test [4] is T4, full-length beta-Catenin (Uniprot ID P35222) (Homo sapiens (Human), UniProt P35222 2-781).
T4 construct: The assay protocols say only 'full-length'; No tag is stated, although the AlphaScreen kit is a Histidine (Nickel Chelate) kit; also called B-Catenin; bCat
T4 sequence: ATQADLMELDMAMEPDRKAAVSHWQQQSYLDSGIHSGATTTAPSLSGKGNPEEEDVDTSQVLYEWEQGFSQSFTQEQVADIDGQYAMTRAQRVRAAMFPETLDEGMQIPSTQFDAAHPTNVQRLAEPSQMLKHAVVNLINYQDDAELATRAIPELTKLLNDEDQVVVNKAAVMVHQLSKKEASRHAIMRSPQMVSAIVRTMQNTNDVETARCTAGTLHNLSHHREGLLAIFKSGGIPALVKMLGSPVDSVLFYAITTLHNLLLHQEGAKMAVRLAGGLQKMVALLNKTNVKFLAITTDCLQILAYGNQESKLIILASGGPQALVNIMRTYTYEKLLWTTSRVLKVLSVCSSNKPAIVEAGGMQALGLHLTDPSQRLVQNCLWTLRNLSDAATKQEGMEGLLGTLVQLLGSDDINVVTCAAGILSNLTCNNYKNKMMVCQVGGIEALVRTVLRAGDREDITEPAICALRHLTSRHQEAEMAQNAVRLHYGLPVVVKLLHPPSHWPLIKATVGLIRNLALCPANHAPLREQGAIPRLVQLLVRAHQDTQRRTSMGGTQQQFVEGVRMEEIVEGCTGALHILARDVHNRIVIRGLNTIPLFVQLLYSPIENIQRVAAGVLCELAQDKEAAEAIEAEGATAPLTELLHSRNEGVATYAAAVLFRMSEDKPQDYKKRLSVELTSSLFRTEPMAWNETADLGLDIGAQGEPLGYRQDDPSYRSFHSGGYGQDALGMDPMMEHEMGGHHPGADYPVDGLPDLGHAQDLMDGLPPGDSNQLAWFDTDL
Nature of the test: fluorescence polarization competition; peptide titrated against full-length beta-catenin + 5FAM-TCF4(10-53) probe. As to the method: The plate was incubated protected from light for 60 minutes at 20° C. prior to read. Reads were performed on a CLARIOstar plate reader (BMG Labtech) in duplicate, and data were fitted to a 1:1 binding model with hill slope using an in-house script. All provided concentrations are final concentrations.

Starred links: 1 amine or outer side, 2 acyl side, 3 side chain; linkers in the order of their positions; H or OH if unused. Positions of bridges follow the written chain, without caps; N, C: chain ends. Non-standard residues stand in square brackets, D forms with d. Primed or numbered codes have the meaning given here. PyrS2″ = (S)-3-amino-1-((pent-4-en-1-yloxy)carbonyl)pyrrolidine-3-carboxylic acid (stapling residue), C=CCCCOC(=O)N1CC[C@@](N[*:1])(C(=O)[*:2])C1; PyrS2 = (S)-3-amino-1-((pent-4-en-1-yloxy)carbonyl)pyrrolidine-3-carboxylic acid, C=CCCCOC(=O)N1CC[C@@](N[*:1])(C(=O)[*:2])C1; B5(19) = 2-amino-2-(pent-4-en-1-yl)hept-6-enoic acid (bis(4-pentenyl)glycine), C=CCCCC(CCCC=C)(N[*:1])C(=O)[*:2]; B5 = 2-amino-2-(pent-4-en-1-yl)hept-6-enoic acid, C=CCCCC(CCCC=C)(N[*:1])C(=O)[*:2]; S3 = (S)-2-amino-2-methylpent-4-enoic acid, C=CC[C@](C)(N[*:1])C(=O)[*:2]; Phe(4-CN) = N#Cc1ccc(C[C@H](N)C(=O)O)cc1; Bta = N[C@@H](Cc1csc2ccccc12)C(=O)O; αAllylPro = C=CC[C@@]1(C(=O)O)CCCN1; tBuAla = CC(C)(C)C[C@H](N)C(=O)O; 3Thi = N[C@@H](Cc1ccsc1)C(=O)O; S8 = C=CCCCCCC[C@](C)(N)C(=O)O; Aib = CC(C)(N)C(=O)O

For the molecule Ac-[αAllylPro]D[tBuAla][B5]DDAAFL[PyrS2][3Thi][Bta]Q-NH2 (staple 1-4, 4-11) [I-801], in test [1], the “DLD1 4% Abs IC50” value was 4.3 µM. The “NanoBRET Abs IC50” value in test [2] came to 5.8 µM. Take Ac-[αAllylPro]D[tBuAla][S3]DDAAFL[Aib][3Thi][Bta]Q-NH2 (staple 1-4) [I-1980]: the “NanoBRET Abs IC50” value in test [3] is more than 20 µM. For the molecule Ac-[αAllylPro]D[tBuAla][B5]DDAAFN[PyrS2″][3Thi][Bta]S-NH2 (staple 1-4, 4-11) [I-815], the “DLD1 4% Abs IC50” value in test [1] is 10.3 µM. Moreover, the “NanoBRET Abs IC50” value in test [2] came to 15.4 µM.

B1: I-354 (peptide)
peptide: XDAXDDAAAVXFWQ
modifications: not fully specified; N-terminal Ac; C-terminal NH2; PL3 at 1, B5 at 4, S8 at 11 (stapled 1-4 and 4-11)
notes: Stapled peptide composition; Later-eluting isomer composition; also called Ac-PL3-Asp-Ala-B5-Asp-Asp-Ala-Ala-Ala-Val-S8-Phe-Trp-Gln-NH2
B1: the EC50 in test [4] stood at 5 µM.

B2: I-1983 (peptide)
peptide: Ac-[αAllylPro]D[tBuAla][S3]DDAAFL[Aib][3Thi][Bta]Q-NH2
modifications: staple 1-4; not fully specified; printed as Ac-PL3-Asp-Npg-S3-Asp-Asp-Ala-Ala-Phe-Leu-Aib-3Thi-BztA-Gln-NH2; also: staple -CH=CH- reduced to -CH2-CH2-
As to B2, the “NanoBRET Abs IC50” value in test [3] was more than 20 µM.

B3: I-359 (peptide)
peptide: Ac-[αAllylPro]DA[B5(19)]DDAAFV[S8][Phe(4-CN)][Bta]Q-NH2
modifications: staple 1-4, 4-11
notes: Stapled peptide composition; also called Ac-PL3-Asp-Ala-B5-Asp-Asp-Ala-Ala-Phe-Val-S8-4CNF-BztA-Gln-NH2
For the molecule B3, in test [4], the concentration giving a half-maximal response (EC50) was found to be 5 µM.

These data come from patent publication US20240116985A1 (published 2024).
